# Test results reported in patent publication US20220143148A1, “COMPOSITIONS AND METHODS FOR MODULATING CGRP SIGNALING TO REGULATE INTESTINAL INNATE LYMPHOID CELLS” (The Broad Institute, Inc., priority 2019, published 2022).
# B1: OVA (protein, UniProt P01012 2-386, looked up)
# Ovalbumin: GSIGAASMEFCFDVFKELKVHHANENIFYCPIAIMSALAMVYLGAKDSTRTQINKVVRFDKLPGFGDSIEAQCGTSVNVHSSLRDILNQITKPNDVYSFSLASRLYAEERYPILPEYLQCVKELYRGGLEPINFQTAADQARELINSWVESQTNGIIRNVLQPSSVDSQTAMVLVNAIVFKGLWEKAFKDEDTQAMPFRVTEQESKPVQMMYQIGLFRVASMASEKMKILELPFASGTMSMLVLLPDEVSGLEQLESIINFEKLTEWTSSNVMEERKIKVYLPRMKMEEKYNLTSVLMAMGITDVFSSSANLSGISSAESLKISQAVHAAHAEINEAGREVVGSAEAGVDAASVSEEFRADHPFLFCIKHIATNAVLFFGRCVSP
# Test system: small intestinal immune cells
# Test: Droplet-based scRNA-seq of small intestinal immune cells (LP and PP), OVA vs PBS, clustering and differential expression
# Assay type: in vivo, mouse
# Conditions: PP
# Source text: To comprehensively characterize small intestinal immune cells, Applicants generated scRNA-Seq profiles for 58,067 immune cells collected from lamina propria (LP) and Peyer's patch (PP) regions at steady state and after induction of a type 2 inflammatory reaction to ovalbumin (OVA) (Brandt et al., 2003) (FIGS. 1A and 8A). To ensure sufficient representation of rare cells, Applicants combined a normalization strategy—removing by flow sorting either a portion of IgD+ naïve B cells, which are the most abundant cell type in PPs, or all CD19+ and CD3+ T cells (FIG. 8B, Methods)—with profiling of a sufficiently large number of cells number (P>0.99 to recover at least 15 cells from each cluster, Methods) by massively parallel scRNA-seq (Haber et al., 2017) (Methods). Applicants obtained 36,797 and 21,270 high quality cells passing initial filtering (Methods) from PP and LP regions, respectively.
# Overall, Applicants annotated 27 cell subsets across the two compartments, spanning T cells, B cells, ILCs, dendritic cells (DCs), myeloid cells and stromal cells, in frequencies ranging from 0.07% to 14%. Briefly, Applicants first partitioned the cells from the PP regions by unsupervised clustering (Methods) into 46 clusters, retained the 97% of cells that were robustly assigned cell identities in each cluster (Methods), assigned the cells from the LP regions to the 46 clusters using a classifier (Methods), and visualized the data with scvis (Ding et al., 2018), a deep generative model-based method (FIGS. 1B and 8C, Methods). Next, Applicants identified genes that were differentially expressed between the cells in each cluster and the remaining cells (Table 1, Methods), as well as between pairs of clusters (Table 2), to elucidate identities of similar cell types/states. Applicants excluded from downstream analysis clusters mostly consisting of contaminants from epithelium, likely doublets, or cells with a small number of Unique Molecular Identifiers (UMIs) (FIGS. 1C and 8D), or lacking distinct markers (Methods). Altogether, Applicants retained 27 clusters spanning 85% of the cells and each associated with distinct marker genes (FIG. 8E, Methods).
# To induce allergic reaction to OVA, 6 to 7 weeks old mice were sensitized twice, two weeks apart, with 50 μg of OVA plus 1 mg of aluminum potassium sulfate adjuvant via intraperitoneal injection. Two weeks later, mice were orally administered with 50 mg of OVA on every other day for a total of five times. 1 μg of α-CGRP peptide was administered simultaneously when indicated. Mice were deprived of food for 3-4 hours in cages with wood chip bedding for limiting antigen degradation in the stomach before each intragastric challenge.
# Isolation of cells from Peyer's patches (PPs). Peyer's patches (PPs) were carefully dissected from the small intestine under a stereo microscope using a fine scissor, pierced once with a fine forcep. Tissues were digested in freshly made digestion buffer (RPMI-1640 containing 100 μg/ml Liberase™ and 50 μg/ml DNase I at 37° C. on a roto-mixer. After 15 min, tissues were very gently mixed using a 1 ml pipette. The supernatant was collected and added to ice-cold MACS buffer (pH 7.4; PBS plus 2% FCS and 2 mM EDTA). Pre-warmed (37° C.) fresh digestion buffer was added to the remaining tissues. After rotation at 37° C. for 15 min, the mixture was vigorously mixed using a 1 ml pipette for 1 min. Supernatants from the two steps were combined and passed through 70 μm filters and stained for FACS (below).
# Isolation of cells from the lamina propria (LP). The small intestines were opened longitudinally and washed in ice-cold PBS. For scRNA-seq, roughly 0.5 cm of fragments from each of the distal, middle and proximal regions without visible PPs were collected. Epithelial cells were dissociated by tissue rotation in pre-warmed (37° C.) PBS containing 10 mM EDTA at 37° C. for 15 min, followed by additional incubation on ice for 15 min. Tissues were then shaken vigorously. […]
molecule,measurement,setting,value
B1,Ptprcap LN (average fold change),"cluster ID 8, OVA vs PBS",0.276
same,Rab35 LN (average fold change),"cluster ID 8, OVA vs PBS",0.478
same,Rac2 LN (average fold change),"cluster ID 8, OVA vs PBS",0.169
same,Rel LN (average fold change),"cluster ID 8, OVA vs PBS",−0.595
same,Rgs1 LN (average fold change),"cluster ID 8, OVA vs PBS",0.795
same,Rnf125 LN (average fold change),"cluster ID 8, OVA vs PBS",−0.483
same,Rnf157 LN (average fold change),"cluster ID 8, OVA vs PBS",−0.362
same,Rora LN (average fold change),"cluster ID 8, OVA vs PBS",−0.455
same,Rrad LN (average fold change),"cluster ID 8, OVA vs PBS",−0.602
same,Rsrp1 LN (average fold change),"cluster ID 8, OVA vs PBS",0.318
same,Samd9l LN (average fold change),"cluster ID 8, OVA vs PBS",0.479
same,Samsn1 LN (average fold change),"cluster ID 8, OVA vs PBS",−0.280
same,Sh2d1a LN (average fold change),"cluster ID 8, OVA vs PBS",0.388
same,Sik1 LN (average fold change),"cluster ID 8, OVA vs PBS",−0.527
same,Skil LN (average fold change),"cluster ID 8, OVA vs PBS",−0.410
same,Sla LN (average fold change),"cluster ID 8, OVA vs PBS",0.486
same,Slfn2 LN (average fold change),"cluster ID 8, OVA vs PBS",0.342
same,Sp100 LN (average fold change),"cluster ID 8, OVA vs PBS",0.330
same,Taf10 LN (average fold change),"cluster ID 8, OVA vs PBS",−0.372
same,Tfam LN (average fold change),"cluster ID 8, OVA vs PBS",−0.555
same,Tgif1 LN (average fold change),"cluster ID 8, OVA vs PBS",−0.580
same,Tm6sf1 LN (average fold change),"cluster ID 8, OVA vs PBS",0.360
same,Traf1 LN (average fold change),"cluster ID 8, OVA vs PBS",−0.355
same,Tsc22d3 LN (average fold change),"cluster ID 8, OVA vs PBS",0.472
same,Tuba4a LN (average fold change),"cluster ID 8, OVA vs PBS",−0.361
same,Txndc5 LN (average fold change),"cluster ID 8, OVA vs PBS",0.592
same,Txnip LN (average fold change),"cluster ID 8, OVA vs PBS",1.190
same,Ube2s LN (average fold change),"cluster ID 8, OVA vs PBS",−0.248
same,VgIl4 LN (average fold change),"cluster ID 8, OVA vs PBS",−0.452
same,Vps37b LN (average fold change),"cluster ID 8, OVA vs PBS",−0.178
same,Zc3h12a LN (average fold change),"cluster ID 8, OVA vs PBS",−0.680
same,Zfp36l2 LN (average fold change),"cluster ID 8, OVA vs PBS",0.382
same,Zfp512 LN (average fold change),"cluster ID 8, OVA vs PBS",0.523
same,AC125149.3 percentage of expressing cells in OVA-treated group,cluster ID 9,0.619
same,Actg1 percentage of expressing cells in OVA-treated group,cluster ID 9,1
same,Apobec1 percentage of expressing cells in OVA-treated group,cluster ID 9,0.86
same,Basp1 percentage of expressing cells in OVA-treated group,cluster ID 9,0.871
same,Cdk1 percentage of expressing cells in OVA-treated group,cluster ID 9,0.478
same,Cks1brt percentage of expressing cells in OVA-treated group,cluster ID 9,0.262
same,Ddit4 percentage of expressing cells in OVA-treated group,cluster ID 9,0.241
same,Eif2ak3 percentage of expressing cells in OVA-treated group,cluster ID 9,0.384
same,Hspa8 percentage of expressing cells in OVA-treated group,cluster ID 9,0.995
same,Igha percentage of expressing cells in OVA-treated group,cluster ID 9,0.566
same,Ighg3 percentage of expressing cells in OVA-treated group,cluster ID 9,0.211
same,Il2 percentage of expressing cells in OVA-treated group,cluster ID 9,0.244
same,Lnx2 percentage of expressing cells in OVA-treated group,cluster ID 9,0.191
same,Malat1 percentage of expressing cells in OVA-treated group,cluster ID 9,1
same,Mcpt1 percentage of expressing cells in OVA-treated group,cluster ID 9,0.156
same,Narf percentage of expressing cells in OVA-treated group,cluster ID 9,0.441
same,Nme2 percentage of expressing cells in OVA-treated group,cluster ID 9,0.4
same,Rsrp1 percentage of expressing cells in OVA-treated group,cluster ID 9,0.796
same,Tsc22d3 percentage of expressing cells in OVA-treated group,cluster ID 9,0.669
same,Tubb5 percentage of expressing cells in OVA-treated group,cluster ID 9,0.966
same,Uba52 percentage of expressing cells in OVA-treated group,cluster ID 9,0.996
same,Ubb percentage of expressing cells in OVA-treated group,cluster ID 9,0.998
same,Wdr89 percentage of expressing cells in OVA-treated group,cluster ID 9,0.993
same,Zfp36l2 percentage of expressing cells in OVA-treated group,cluster ID 9,0.758
same,AC125149.3 LN (average fold change),"cluster ID 9, OVA vs PBS",0.342
same,Actg1 LN (average fold change),"cluster ID 9, OVA vs PBS",−0.161
same,Apobec1 LN (average fold change),"cluster ID 9, OVA vs PBS",0.201
same,Basp1 LN (average fold change),"cluster ID 9, OVA vs PBS",−0.559
same,Cdk1 LN (average fold change),"cluster ID 9, OVA vs PBS",−0.396
same,Cks1brt LN (average fold change),"cluster ID 9, OVA vs PBS",1.033
same,Ddit4 LN (average fold change),"cluster ID 9, OVA vs PBS",0.791
same,Eif2ak3 LN (average fold change),"cluster ID 9, OVA vs PBS",0.581
same,Hspa8 LN (average fold change),"cluster ID 9, OVA vs PBS",−0.426
same,Igha LN (average fold change),"cluster ID 9, OVA vs PBS",0.227
same,Ighg3 LN (average fold change),"cluster ID 9, OVA vs PBS",1.831
same,Il2 LN (average fold change),"cluster ID 9, OVA vs PBS",0.918
same,Lnx2 LN (average fold change),"cluster ID 9, OVA vs PBS",0.811
same,Malat1 LN (average fold change),"cluster ID 9, OVA vs PBS",−0.269
same,Mcpt1 LN (average fold change),"cluster ID 9, OVA vs PBS",2.708
same,Narf LN (average fold change),"cluster ID 9, OVA vs PBS",0.449
same,Nme2 LN (average fold change),"cluster ID 9, OVA vs PBS",0.703
same,Rsrp1 LN (average fold change),"cluster ID 9, OVA vs PBS",−0.274
